Reference: paper PMC4829432, “T-box3 is a ciliary protein and regulates stability of the Gli3 transcription factor to control digit number” (eLife, 2016)
Values belong to the molecule of their own block, whether it stands above or below them.

B2: Kif7, endogenous mouse protein (natural protein, mouse (endogenous in E10.5 embryos), UniProt B7ZNG0 1-1348, looked up)
chain: MGLEAQRLPGAEEAPVRVALRVRPLLPKELLHGHQSCLRVEPERGRITLGRDRHFGFHVVLGEDTGQEAVYQACVQPLLEAFFEGFNATVFAYGQTGSGKTYTMGEASVASLHEDEQGIIPRAMAEAFKLIDENDLLDCLVHVSYLELYKEEFRDLLEVGTASRDIQLREDDRGNVVLCGVKEVDVEGLDEVLSLLEMGNAARHTGATHFNRLSSRSHTVFTVTLEQRGRTPSRLPRPAAGHLLVSKFHFVDLAGSERVLKTGSTGERLKESIQINSTLLALGNVISALGDPQRRGSHIPYRDSKITRILKDSLGGNAKTVMIACVSPSSSDFDETLNTLNYASRAQNIRNRATVNWHPEAERVPEEQAAGARGPPRHRSETRIIHRGRRVPCPAVGSAAVAAGLGAECARCRARTSAAYSLLRELQAEPGLPGAAARKVRDWLCAVEGERSTLSSASGPDSGIESAPAEDQAAQGTSGRKGDEGTQQLLTLQSQVARLEEENRDFLAALEDAMEQYKLQSDRLREQQEEMVELRLRLELAQPGWGAPGLLQGLPPGSFVPRPHTAPLGGAHTHMLGMMPSTCLPGEEVSSEQQVVSGKEVKAEVLAQADKLRSASSTTSEEEGEEEEEEEEEEEEPPRRTLYLRRNGISNWSQRAGLSPGSPPDRKGPEVCPEEPAAAIPAPQAVGSGKVPVQTRQAPAAMASEWRLAQAQQKIRELAINIRMKEELIGELVRTGKAAQALNRQHSQRIRELEQEAERVRAELCEGQRQLRELEGREPQDASERSRLQEFRKRVAAAQSQVQVLKEKKQATERLVSLSAQSETRLQELERNVQLMRRQQGQLQRRLREETEQKRRLETEMNKRQHRVKELELKHEQQQKILKIKTEEIAAFQRKRRSGSNGSVVSLEQQQKIEEQKKWLDQEMEKVLQQRRALEELGEELRKREVILAKKEALMQEKTGLESKRLRSSQALNEDIVRVSSRLEHLEKELSEKSGQLRQGSAQNQQQIRGEIDTLRQEKDSLLKQRLEIDSKLRQGSLLSPEEERTLFQLDEAIEALDAAIEYKNEAITCRQRVLRASASLLSQCEMNLMAKLSYLSSSETRALLCKYFDKVVTLREEQHQQQIAFSELEMQLEEQQRLVYWLEVALERQRLEMDRQLTLQQKEHEQNVQLLLQQGRDHLGEGLADSKRQYEARIHALEKELGRHMWINQELKQKLSAGSTAGQSQGCERRSLCLENRQCLGNEDGLHPAAPEPLWQSSLLEGVSRVWDESRDLVHAPLPLTWKRSSLCSEQGSSEESRVRETTEPPVGRVLPMGEVGLSWNFGPLPKPRWEPRRTSPGMIDVRKNPL
notes: Kif7, ciliary kinesin family protein, mouse, endogenous in E10.5 forelimb buds and whole embryos; source: endogenous, E10.5 mouse forelimb bud lysate or E10.5 whole embryo lysate (control or Tbx3 null)

Assays:
[1] = molecular target: Kif7, endogenous mouse protein (mouse (endogenous in E10.5 embryos)) (UniProt B7ZNG0); experiment: co-IP; as a4, but lysates of Tbx3 null (Tbx3 delta-fl/delta-fl, ko) E10.5 embryos; Kif7-Gli3 co-precipitate compared with control (wt) embryos by densitometry
[2] = molecular target: Suppressor of fused (Sufu), endogenous mouse protein (mouse (endogenous in E10.5 embryos)) (UniProt Q9Z0P7); experiment: co-IP; endogenous proteins; E10.5 whole mouse embryo lysates in Dignam buffer C, control (wt) embryos; Sufu-Gli3, Sufu-Kif7 and Tbx3-Spop also assayed in Tbx3 null (Tbx3 delta-fl/delta-fl, ko) embryos, where less Sufu-Gli3 and Sufu-Kif7 co-precipitated; 5-10 ug antibody overnight at 4 C, Protein-G Dynal beads, immunoblot, densitometry
[3] = molecular target: B2; experiment: co-IP; as a4, but lysates of Tbx3 null (Tbx3 delta-fl/delta-fl, ko) E10.5 embryos; Kif7-Gli3 co-precipitate compared with control (wt) embryos by densitometry; conditions: partners not purified
[4] = molecular target: T1, Suppressor of fused (Sufu), endogenous mouse protein (mouse (endogenous in E10.5 embryos), UniProt Q9Z0P7 1-484); experiment: co-IP; endogenous proteins; E10.5 whole mouse embryo lysates in Dignam buffer C, control (wt) embryos; Sufu-Gli3, Sufu-Kif7 and Tbx3-Spop also assayed in Tbx3 null (Tbx3 delta-fl/delta-fl, ko) embryos, where less Sufu-Gli3 and Sufu-Kif7 co-precipitated; 5-10 ug antibody overnight at 4 C, Protein-G Dynal beads, immunoblot, densitometry; conditions: partners not purified
T1 construct: Suppressor of fused (Sufu), mouse, endogenous in E10.5 embryos; source: endogenous, E10.5 mouse whole embryo lysate (control or Tbx3 null)
T1 sequence (looked up): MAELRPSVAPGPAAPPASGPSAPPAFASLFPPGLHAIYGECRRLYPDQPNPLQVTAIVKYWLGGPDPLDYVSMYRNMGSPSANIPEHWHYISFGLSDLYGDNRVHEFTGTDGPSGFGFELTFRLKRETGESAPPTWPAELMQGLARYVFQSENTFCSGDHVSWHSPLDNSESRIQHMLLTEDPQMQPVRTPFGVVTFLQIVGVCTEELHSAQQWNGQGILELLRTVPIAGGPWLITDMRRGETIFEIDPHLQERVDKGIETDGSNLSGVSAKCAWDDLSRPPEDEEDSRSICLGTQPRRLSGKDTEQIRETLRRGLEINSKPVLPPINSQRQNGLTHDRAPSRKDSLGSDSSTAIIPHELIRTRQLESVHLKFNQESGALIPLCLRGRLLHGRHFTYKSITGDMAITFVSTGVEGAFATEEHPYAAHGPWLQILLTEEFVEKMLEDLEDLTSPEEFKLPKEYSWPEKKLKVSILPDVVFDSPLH

[5] = molecular target: T2, Gli3, endogenous mouse protein as precipitated by anti-Gli3 (Gli3FL and Gli3R not told apart) (mouse (endogenous in E10.5 embryos), UniProt Q61602 1-1583); experiment: co-IP; as a4, but lysates of Tbx3 null (Tbx3 delta-fl/delta-fl, ko) E10.5 embryos; Kif7-Gli3 co-precipitate compared with control (wt) embryos by densitometry; conditions: partners not purified
T2 construct: Gli3 transcription factor, mouse, endogenous; Used only for the lanes in which Gli3 was the bait (IP with anti-Gli3, blot for the partner); the forms Gli3FL and Gli3R are told apart only on anti-Gli3 blots; also called endogenous Gli3; Gli3 proteins; source: endogenous, E10.5 mouse forelimb bud lysate or E10.5 whole embryo lysate (control or Tbx3 null)

B1: full length Gli3 (Gli3FL), endogenous mouse protein (natural protein, mouse (endogenous in E10.5 embryos), UniProt Q61602 1-1583, looked up)
chain: MEAQAHSSTATERKKAENSIGKCPTRTDVSEKAVASSTTSNEDESPGQIYHRERRNAITMQPQSVQGLNKISEEPSTSSDERASLIKKEIHGSLPHLAEPSLPYRGTVFAMDPRNGYMEPHYHPPHLFPAFHPPVPIDARHHEGRYHYDPSPIPPLHVPSALSSSPTYPDLPFIRISPHRNPTAASESPFSPPHPYINPYMDYIRSLHSSPSLSMISAARGLSPTDAPHAGVSPAEYYHQMALLTGQRSPYADILPSAATAGAGAIHMEYLHAMDSTRFPSPRLSARPSRKRTLSISPLSDHSFDLQTMIRTSPNSLVTILNNSRSSSSASGSYGHLSASAISPALSFTYPSAPVSLHMHQQILSRQQSLGSAFGHSPPLIHPAPTFPTQRPIPGIPTVLNPVQVSSGPSESSQSKPTSESAVSSTGDPMHNKRSKIKPDEDLPSPGSRGQQEQPEGTTLVKEEADKDESKQEPEVIYETNCHWEGCTREFDTQDQLVHHINNDHIHGEKKEFVCRWLDCSREQKPFKAQYMLVVHMRRHTGEKPHKCTFEGCTKAYSRLENLKTHLRSHTGEKPYVCEHEGCNKAFSNASDRAKHQNRTHSNEKPYVCKIPGCTKRYTDPSSLRKHVKTVHGPEAHVTKKQRGDMHPRPPPPRDSGSHSQSRSPGRPTQGAFGEQKELSNTTSKREECLQVKTVKAEKPMTSQPSPGGQSSCSSQQSPISNYSNSGLELPLTDGGSVADLSAIDETPIMDSTISTATTALALQARRNPAGTKWMEHIKLERLKQVNGMFPRLNPILPSKAPAVSPLIGNGTQSNNNYSSGGPGTLLPSRSDLSGVDFTVLNTLNRRDSNTSTISSAYLSSRRSSGISPCFSSRRSSEASQAEGRPQNVSVADSYDPISTDASRRSSEASQGDGLPSLLSLTPVQQYRLKAKYAAATGGPPPTPLPHMERLSLKTKMALLGEGRDSGVTLPPVHPPRRCSDGGGHTYRGRHLMPHDALANSVRRASDPVRTVSENMSLARVQRFSSLNSFNPPNLPPSVEKRSLVLQNYTRQESSQPRYFQASPCPPSITENVALEALTMDADANLNDEDLLPDDVVQYLNSQNQTGYGQQLQSGISEDSKVAHEPEDLDLAGLPDSHVGQEYPALEQPCSEGSKTDLPIQWNEVSSGTSDLSSSKLKCGQQRPSAQQPRGFGLYNNMVVHPHNLWKVGTGPAGGYQTLGENSSTYNGPEHFAIHSGDGLGTNGNTFHEQPFKTQQYGSQLNRQPLTSSALDHACGTGIQGSKLKGNSLQENGGLLDFSLSVAPNELAGNTVNGMQTQDQMGQGYIAHQLLSGSMQHQGPSRPGQQVLGQVGATSHINIYQGTESCLPGTQDNSSQPSSMAAIRGYQPCASYGGNRRQAMPRGNLTLQQGQLSDMSQSSRVNSIKMEAQGQSQQLCSTVQNYSGQFYDQTMGFSQQDRKAGSFSLSDANCLLQGNGTENSELLSPGANQVTSTVDSFESHDLEGVQIDFDAIIDDGDHTSLMSGALSPSIIQNLSHSSSRLTTPRASLPFPSLSMGTTNMAIGDMSSLLTSLAEESKFLAVMQ
notes: Gli3 transcription factor, mouse, the unprocessed full length form (Gli3FL band on anti-Gli3 immunoblots); also called GliFL; source: endogenous, E10.5 mouse forelimb bud lysate or E10.5 whole embryo lysate (control or Tbx3 null)
band intensity ratio of control to mutant [3]: 0.1
fold more co-precipitated in controls than in Tbx3 mutants [4]: 4.6 fold

Molecule: B2
band intensity ratio of control to mutant [5]: 0.1

Next, values leading:

fold more co-precipitated in Tbx3 mutants than in controls [1]: 3.3 fold
Molecule: Gli3 repressor form (Gli3R), endogenous mouse protein (from UniProt Q61602 1-1583)

band intensity ratio of control to mutant [1]: 0.25
fold more co-precipitated in controls than in Tbx3 mutants [2]: > 9 fold
Molecule: Gli3 repressor form (Gli3R), endogenous mouse protein (from UniProt Q61602 1-1583) (domain or fragment)
